Data taken from patent publication US20060293221A1.

Legend:
[1] = target: Mucin I: Crude mucin, type II from porcine stomach (Sigma)
[2] = target: Mucin I: Crude mucin, type II from porcine stomach (Sigma); remark: listed apart in the source
[3] = target: Mucin I: Crude mucin, type II from porcine stomach (Sigma); remark: listed apart in the source

Row | Elastic modules G' (Pa) at 1 Hz, oscillatory measurement [1] [Pa] | viscosity, rheometer, constant rate (stress versus shear rate) [2] [factor] | viscosity, rheometer, comparison of four TFF2 peptides (7.05 mg in 2 ml 10% mucin I) [3] [Pa s] | Substance
1 | 17 | 10 | 0.8 | glycosylated recombinant human Asn99-TFF2 (from UniProt Q03403) (ligand)
2 |  |  | 0.54 | non-glycosylated recombinant human Asn99-TFF2 (from UniProt Q03403) (ligand)
